Data taken from patent US7057015B1, “Hormone receptor functional dimers and methods of their use” (The Salk Institute for Biological Studies, priority 1999, dated 2006).

How the values were obtained:
[1] = tested on: mammals and other non-insect species; conditions: in vivo; cited from earlier work
[2] = tested on: E0R (EcR-RXR fusion, 0 linker segments) (Drosophila melanogaster / Homo sapiens); assay: EMSA; conditions: 1 uM muristerone A, 23 C
[3] = tested on: E0U (EcR-Usp fusion, 0 linker segments) (Drosophila melanogaster); assay: EMSA; conditions: nearly ligand-insensitive
[4] = tested on: E5R (EcR-RXR fusion, 5 linker segments) (Drosophila melanogaster / Homo sapiens); assay: EMSA; conditions: 1 uM muristerone A, 23 C
[5] = tested on: E5U (EcR-Usp fusion, 5 linker segments) (Drosophila melanogaster); assay: EMSA; conditions: nearly ligand-insensitive; not significantly above E0U
[6] = tested on: R0E (RXR-EcR fusion, 0 linker segments) (Homo sapiens / Drosophila melanogaster); assay: EMSA; conditions: 1 uM muristerone A, 23 C
[7] = tested on: R5E (RXR-EcR fusion, 5 linker segments) (Homo sapiens / Drosophila melanogaster); assay: EMSA; conditions: 1 uM muristerone A, 23 C
[8] = tested on: U0E (Usp-EcR fusion, 0 linker segments) (Drosophila melanogaster); assay: EMSA; conditions: barely detectable endodimer band; 1 uM muristerone A, 23 C
EcRE probe = assay: Gel mobility shift analysis of EcRE probe binding by FDs; conditions: 1 μM murA vs vehicle, extracts of transfected 293 cells
Procedure: Preparation of the invention fusion protein FDs for gel shift analysis by transient transfection into 293 cells was as follows: 300 ng of individual receptor plasmids and 100 ng pCH110 internal control plasmid were cotransfected into 293 cells at 60% density in Costar 6-well plates. One well of each group was treated with 1 μM murA as ligand at the time of transfection. 40 hours later, extracts of transfected 293 cells were made by scraping the cells from a well into a low volume of phosphate buffered saline, pelleting the cells, resuspending them in 200 μl 5×gel shift buffer (Yao et al., supra 1992), and sonicating with a Kontes cell disrupter for three 10-sec. bursts at output level 30. The extracts were then centrifuged to clear the lysate and the protein was quantified. […]
Comparative gel mobility shift analyses of FDs with control in vitro translated receptor complexes were performed using double stranded EcRE probes and labeled by Klenow fill using ^32P-dCTP and cold dGAT by standard methods. […] Band volumes were quantified using laser scanning densitometry.
An autoradiogram of FDs and controls treated either with control vehicle or with 1 μM of murA as ligand was made with markers indicating endodimer FD or wild type receptor-binding complex band shifts. […] FIG. 2A is a graph that quantifies endodimer-sized band volumes obtained from the autoradiogram.

[9] = tested on: E4-luc reporter plasmid in 293 cells; assay: Transient transfection luciferase transactivation assay with E4-luc reporter; format: cell-based, human
Procedure: For quantitative transactivation analysis, transfections were performed in triplicate in 24-well plates by calcium-phosphate co-precipitation with 100 ng of an individual receptor, the reporter plasmid E4-luc, and pCH110 (SV40-β-galactosidase) as an internal control. Briefly, the reporter plasmid, E4-luc, was constructed of 4-tandem EcREs inserted upstream of a thymidine kinase gene minimal promoter directing luciferase expression. […] 1 μM ligand was added at the time of transfection, and the cells were harvested for luciferase assay 40 hours later. Harvested cell extracts were split, and one part was analyzed in a luminometer for luciferase activity and the other part was analyzed for β-galactosidase activity using an orthonitrophenyl galactoside assay by standard methods. Luciferase levels were normalized to β-galactosidase values to correct for slight differences in transfection efficiency.

[10] = target: T1, Drosophila melanogaster ecdysone receptor (monomeric) (Drosophila melanogaster, UniProt P34021 1-878); assay: cell-based or functional assay
T1 sequence (looked up): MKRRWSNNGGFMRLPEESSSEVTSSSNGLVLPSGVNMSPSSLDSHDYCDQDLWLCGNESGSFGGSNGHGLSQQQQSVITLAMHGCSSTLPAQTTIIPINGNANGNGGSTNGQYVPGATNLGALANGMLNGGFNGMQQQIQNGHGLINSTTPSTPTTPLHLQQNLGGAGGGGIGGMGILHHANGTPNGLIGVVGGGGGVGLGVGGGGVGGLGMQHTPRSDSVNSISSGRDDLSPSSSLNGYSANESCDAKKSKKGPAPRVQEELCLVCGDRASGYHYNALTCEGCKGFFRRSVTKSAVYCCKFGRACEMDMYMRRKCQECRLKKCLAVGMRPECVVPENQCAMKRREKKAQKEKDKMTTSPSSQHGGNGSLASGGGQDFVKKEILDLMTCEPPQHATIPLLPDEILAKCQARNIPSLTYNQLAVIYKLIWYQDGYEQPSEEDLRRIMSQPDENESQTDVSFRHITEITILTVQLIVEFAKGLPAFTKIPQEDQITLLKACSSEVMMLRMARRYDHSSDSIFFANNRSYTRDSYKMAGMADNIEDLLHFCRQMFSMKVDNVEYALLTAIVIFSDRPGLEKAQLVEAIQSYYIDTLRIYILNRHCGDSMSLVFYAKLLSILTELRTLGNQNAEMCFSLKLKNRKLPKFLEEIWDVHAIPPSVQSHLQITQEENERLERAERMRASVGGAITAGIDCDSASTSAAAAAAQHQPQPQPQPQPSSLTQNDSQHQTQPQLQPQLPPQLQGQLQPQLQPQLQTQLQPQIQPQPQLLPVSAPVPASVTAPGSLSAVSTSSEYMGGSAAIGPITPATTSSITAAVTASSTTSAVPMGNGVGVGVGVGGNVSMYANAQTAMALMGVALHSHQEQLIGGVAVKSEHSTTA

In the case of CCc1ccc(C(=O)NN(C(=O)c2cc(C)cc(C)c2)C(C)(C)C)cc1 [Tebufenozide, tebufenozide], the “toxicity to mammals and other non-insect species” value [1] is listed as “very low toxicity”.

With EcRE probe the binding signal (fold increase with ligand) [2] was 7, the binding signal (fold vs UNE constructs (average of ENU)) [3] was 10 and the binding signal (fold increase with ligand) [4] was 11. It also gave a binding signal (fold vs UNE constructs (average of ENU)) [5] of 10, a binding signal (fold increase with ligand) [6] of 4 and a binding signal (fold increase with ligand) [7] of 5. For the same molecule, the binding signal (fold increase with ligand) [8] was 2.

B1: E5R: fusion protein: Drosophila EcR at amino terminus, 5 linker segments, RXR (protein)
chain: MKRRWSNNGGFMRLPEESSSEVTSSSNGLVLPSGVNMSPSSLDSHDYCDQDLWLCGNESGSFGGSNGHGLSQQQQSVITLAMHGCSSTLPAQTTIIPINGNANGNGGSTNGQYVPGATNLGALANGMLNGGFNGMQQQIQNGHGLINSTTPSTPTTPLHLQQNLGGAGGGGIGGMGILHHANGTPNGLIGVVGGGGGVGLGVGGGGVGGLGMQHTPRSDSVNSISSGRDDLSPSSSLNGYSANESCDAKKSKKGPAPRVQEELCLVCGDRASGYHYNALTCEGCKGFFRRSVTKSAVYCCKFGRACEMDMYMRRKCQECRLKKCLAVGMRPECVVPENQCAMKRREKKAQKEKDKMTTSPSSQHGGNGSLASGGGQDFVKKEILDLMTCEPPQHATIPLLPDEILAKCQARNIPSLTYNQLAVIYKLIWYQDGYEQPSEEDLRRIMSQPDENESQTDVSFRHITEITILTVQLIVEFAKGLPAFTKIPQEDQITLLKACSSEVMMLRMARRYDHSSDSIFFANNRSYTRDSYKMAGMADNIEDLLHFCRQMFSMKVDNVEYALLTAIVIFSDRPGLEKAQLVEAIQSYYIDTLRIYILNRHCGDSMSLVFYAKLLSILTELRTLGNQNAEMCFSLKLKNRKLPKFLEEIWDVHAIPPSVQSHLQITQEENERLERAERMRASVGGAITAGIDCDSASTSAAAAAAQHQPQPQPQPQPSSLTQNDSQHQTQPQLQPQLPPQLQGQLQPQLQPQLQTQLQPQIQPQPQLLPVSAPVPASVTAPGSLSAVSTSSEYMGGSAAIGPITPATTSSITAAVTASSTTSAVPMGNGVGVGVGVGGNVSMYANAQTAMALMGVALHSHQEQLIGGVAVKSEHSTTAGPTGPGPGGGSGGGSGTGPGGGSGGGSGTGPGGGSGGGSGTGPGGGSGGGSGTGPGGGSGGGSGTMDTKHFLPLDFSTQVNSSLTSPTGRGSMAAPSLHPSLGPGIGSPGQLHSPISTLSSPINGMGPPFSVISSPMGPHSMSVPTTPTLGFSTGSPQLSSPMNPVSSSEDIKPPLGLNGVLKVPAHPSGNMASFTKHICAICGDRSSGKHYGVYSCEGCKGFFKRTVRKDLTYTCRDNKDCLIDKRQRNRCQYCRYQKCLAMGMKREAVQEERQRGKDRNENEVESTSSANEDMPVERILEAELAVEPKTETYVEANMGLNPSSPNDPVTNICQAADKQLFTLVEWAKRIPHFSELPLDDQVILLRAGWNELLIASFSHRSIAVKDGILLATGLHVHRNSAHSAGVGAIFDRVLTELVSKMRDMQMDKTELGCLRAIVLFNPDSKGLSNPAEVEALREKVYASLEAYCKHKYPEQPGRFAKLLLRLPALRSIGLKCLEHLFFFKLIGDTPIDTFLMEMLEAPHQMT
For B1, the “relative-fold increase in response element binding (endodimer band) resulting from ligand treatment” value (EcRE probe) was 11 fold, the “Rel. Ind. = relative induction of individual receptor groups” value ([9]; +ligand (1 μM murA) versus −ligand) was 8.4 fold and the “+Lig/E4 = luciferase activity vs. reporter only with ligand” value ([9]; transiently co-transfected 293 cells, 1 μM murA, relative to E4-luc reporter only) was 3.89. For the same molecule, the “−Lig/E4 = luciferase activity vs. reporter only without ligand” value ([9]; transiently co-transfected 293 cells, without ligand, relative to E4-luc reporter only) was 0.46.

B2: VP16-fused monomeric RXR (other)
chain: MDTKHFLPLDFSTQVNSSLTSPTGRGSMAAPSLHPSLGPGIGSPGQLHSPISTLSSPINGMGPPFSVISSPMGPHSMSVPTTPTLGFSTGSPQLSSPMNPVSSSEDIKPPLGLNGVLKVPAHPSGNMASFTKHICAICGDRSSGKHYGVYSCEGCKGFFKRTVRKDLTYTCRDNKDCLIDKRQRNRCQYCRYQKCLAMGMKREAVQEERQRGKDRNENEVESTSSANEDMPVERILEAELAVEPKTETYVEANMGLNPSSPNDPVTNICQAADKQLFTLVEWAKRIPHFSELPLDDQVILLRAGWNELLIASFSHRSIAVKDGILLATGLHVHRNSAHSAGVGAIFDRVLTELVSKMRDMQMDKTELGCLRAIVLFNPDSKGLSNPAEVEALREKVYASLEAYCKHKYPEQPGRFAKLLLRLPALRSIGLKCLEHLFFFKLIGDTPIDTFLMEMLEAPHQMT
For B2, the “E-mediated transactivation of the E4-luc luciferase reporter in 293 cells” value [10] was over 5 fold.
